Measured values published in publication PMC8546555, “Colicin-Mediated Transport of DNA through the Iron Transporter FepA” (mBio, 2021).

Molecular target: T1, FepA overexpressed from pBAD/Myc-HisB (E. coli, UniProt P05825 23-746)
T1 construct: FepA, outer membrane ferric enterobactin transporter of E. coli; source: E. coli BW25113 ΔFepA (JW5086-3) or BL21(DE3), pBAD/Myc-HisB, overexpressed; on live cells, or in a detergent-extracted OM protein fraction
T1 sequence: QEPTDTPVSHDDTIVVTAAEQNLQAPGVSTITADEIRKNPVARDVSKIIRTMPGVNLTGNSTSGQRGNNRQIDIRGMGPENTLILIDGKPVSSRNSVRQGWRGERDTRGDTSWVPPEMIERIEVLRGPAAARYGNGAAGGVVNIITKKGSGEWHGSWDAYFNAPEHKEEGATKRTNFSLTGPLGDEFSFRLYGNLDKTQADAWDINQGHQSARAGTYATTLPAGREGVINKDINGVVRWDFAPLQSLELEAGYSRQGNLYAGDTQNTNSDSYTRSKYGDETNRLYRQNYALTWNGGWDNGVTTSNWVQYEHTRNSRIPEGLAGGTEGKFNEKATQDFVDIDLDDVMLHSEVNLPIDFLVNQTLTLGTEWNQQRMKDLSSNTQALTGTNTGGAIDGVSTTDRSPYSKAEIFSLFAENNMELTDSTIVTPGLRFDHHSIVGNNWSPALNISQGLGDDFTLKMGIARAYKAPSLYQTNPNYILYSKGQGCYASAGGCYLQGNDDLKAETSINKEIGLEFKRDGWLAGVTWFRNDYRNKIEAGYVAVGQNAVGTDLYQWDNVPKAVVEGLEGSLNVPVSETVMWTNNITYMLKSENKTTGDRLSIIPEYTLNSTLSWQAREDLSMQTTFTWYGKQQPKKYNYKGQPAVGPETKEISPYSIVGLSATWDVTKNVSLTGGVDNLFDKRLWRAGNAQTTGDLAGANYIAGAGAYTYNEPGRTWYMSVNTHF
Assay: native MS; 60 mg ColB-RT added to a 5-liter culture of BW25113(ΔFepA) cells overexpressing FepA; complex detergent extracted, purified by nickel affinity and size exclusion chromatography; 100 mM ammonium acetate, 1% β-OG, pH 6.9
Settings: one partner purified

B1: ColB-RT (341 aa) (domain or fragment)
chain: MSDNEGSVPTEGIDYGDTMVVWPSTGRIPGGDVKPGGSSGLAPSMPPGWGDYSPQGIALVQSVLFPGIIRRIILDKELEEGDWSGWSVSVHSPWGNEKVSAARTVLENGLRGGLPEPSRPAAVSFARLEPASGNEQKIIRLMVTQQLEQVTDIPASQLPAAGNNVPVKYRLTDLMQNGTQYMAIIGGIPMTVPVVDAVPVPDRSRPGTNIKDVYSAPVSPNLPDLVLSVGQMNTPVRSNPEIQEDGVISETGNYVEAGYTMSSNNHDVIVRFPEGSGVSPLYISAVEILDSNSLSQRQEAENNAKDDFRVKKEQENDEKTVLTKTSEVIISVGDKVGEYLG
notes: not shown: His6, C-terminal, kept
- stoichiometry N: 1
